For 4 substances, reduction of the binding capacity of the beads for p53 by the mass tag, signal-to-noise ratio and signal-to-noise results are on record in patent publication US20140235471A1.

Where two headings read alike, the source gives them in different places.

Assay [1] addresses cell-free expressed recombinant human p53 with N-terminal VSV-G epitope tag and C-terminal polyhisti (human) (UniProt P04637).
The target is the same in assay [2]. The source holds these as a separate data set.
The target of assay [3] is cell-free expressed recombinant human KLHL12 with N-terminal VSV-G epitope tag and C-terminal polyhistidine and HSV epitope tags (human) (UniProt Q53G59).
Sequence of UniProt Q53G59 (Q53G59 other isoform, or with tags, fused parts or gaps limits assumed): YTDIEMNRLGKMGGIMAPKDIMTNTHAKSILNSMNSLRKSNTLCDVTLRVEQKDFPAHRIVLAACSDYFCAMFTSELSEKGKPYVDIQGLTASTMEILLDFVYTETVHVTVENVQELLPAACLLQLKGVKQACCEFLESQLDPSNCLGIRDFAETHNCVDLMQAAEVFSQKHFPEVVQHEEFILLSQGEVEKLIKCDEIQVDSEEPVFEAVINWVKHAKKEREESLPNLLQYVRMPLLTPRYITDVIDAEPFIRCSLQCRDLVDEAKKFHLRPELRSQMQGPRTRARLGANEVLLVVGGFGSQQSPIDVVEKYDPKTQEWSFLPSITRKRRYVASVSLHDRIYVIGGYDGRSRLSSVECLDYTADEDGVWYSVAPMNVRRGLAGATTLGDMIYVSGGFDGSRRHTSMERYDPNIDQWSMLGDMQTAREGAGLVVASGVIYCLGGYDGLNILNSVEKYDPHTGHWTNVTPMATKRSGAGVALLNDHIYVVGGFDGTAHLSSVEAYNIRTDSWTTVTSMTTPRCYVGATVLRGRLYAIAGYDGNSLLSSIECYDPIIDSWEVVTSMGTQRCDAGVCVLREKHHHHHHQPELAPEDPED
The target in assay [4] is cell-free expressed recombinant human p53 with N-terminal VSV-G epitope tag and C-terminal polyhisti (human) (UniProt P04637). Nature of the assay: fluorescence imaging of p53 beads against blank beads, anti-VSV-Cy3 antibody.
Assay [5] has the same target. Nature of the assay: fluorescence imaging of p53 positive against negative control blank beads.
For assay [6] the target is unchanged. Nature of the assay: Bead-ELISA, chemiluminescence normalised to bead fluorescence; mass-tagged beads.

Turning to “anti-HSV tag monoclonal antibody (EMD Biosciences)”, in assay [1], the reduction of the binding capacity of the beads for p53 by the mass tag is 50%.

Turning to “fluorescently (Cy3) labeled anti-VSV-G tag antibody (Sigma-Aldrich)”, the figures for the signal-to-noise ratio in assay [2] and in assay [3] were 60 :1 and 10 :1, respectively. In addition, in assay [4], the signal-to-noise is 25 :1.

In the case of “fluorescently labeled (Alexa Fluor 594) anti-p53 antibody, clone BP53-12 (Santa Cruz Biotechnology)”, the signal-to-noise ratio in assay [5] is > 100 :1.

As for “monoclonal anti-VSV-G horseradish peroxidase (HRP) conjugated antibody, Clone P5D4”, the signal-to-noise ratio in assay [6] is 42 :1; in assay [1], 82 :1.
